The values below come from IntAct's records for PubMed 16630557.

The labels stand for the following.
B1: mRNA-decapping enzyme subunit 1 (Saccharomyces cerevisiae), Q12517 (parent)
chain: MTGAATAAENSATQLEFYRKALNFNVIGRYDPKIKQLLFHTPHASLYKWDFKKDEWNKLEYQGVLAIYLRDVSQNTNLLPVSPQEVDIFDSQNGSNNIQVNNGSDNSNRNSSGNGNSYKSNDSLTYNCGKTLSGKDIYNYGLIILNRINPDNFSMGIVPNSVVNKRKVFNAEEDTLNPLECMGVEVKDELVIIKNLKHEVYGIWIHTVSDRQNIYELIKYLLENEPKDSFA

Variants of B1 are the subject of the test. Conditions: with erf3_yeast SUP35, P05453.
Sequence of erf3_yeast SUP35, P05453 (P05453 whole entry): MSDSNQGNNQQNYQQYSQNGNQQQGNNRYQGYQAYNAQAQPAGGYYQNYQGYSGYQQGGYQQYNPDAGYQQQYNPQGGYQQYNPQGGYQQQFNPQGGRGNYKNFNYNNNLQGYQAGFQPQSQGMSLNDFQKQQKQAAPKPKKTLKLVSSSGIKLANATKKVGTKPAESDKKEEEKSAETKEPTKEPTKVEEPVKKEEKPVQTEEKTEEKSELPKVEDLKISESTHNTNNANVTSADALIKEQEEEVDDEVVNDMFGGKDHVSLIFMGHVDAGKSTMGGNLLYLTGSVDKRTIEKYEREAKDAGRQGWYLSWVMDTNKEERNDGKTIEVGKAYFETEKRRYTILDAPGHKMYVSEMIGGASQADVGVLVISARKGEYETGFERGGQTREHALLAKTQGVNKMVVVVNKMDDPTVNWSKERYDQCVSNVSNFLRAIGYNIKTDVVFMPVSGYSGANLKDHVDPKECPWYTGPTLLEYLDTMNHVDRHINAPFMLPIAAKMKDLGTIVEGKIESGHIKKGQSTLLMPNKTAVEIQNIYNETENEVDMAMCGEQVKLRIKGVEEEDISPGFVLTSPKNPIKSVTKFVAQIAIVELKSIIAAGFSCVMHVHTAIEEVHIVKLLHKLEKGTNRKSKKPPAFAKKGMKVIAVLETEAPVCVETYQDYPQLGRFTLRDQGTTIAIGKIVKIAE
In the case of L38P;S45P, the “effect of a mutation on the interaction” value is on record as “decreasing interaction”.

Regarding S45P, the “effect of a mutation on the interaction” value is on record as “decreasing interaction”.
